In the DeepSol protein solubility set:

Experiment: soluble on expression in E. coli; label from the status in PepcDB or PDB records

Row | Sequence | soluble on expression in E. coli
1 | MGSDKIHHHHHHMKTLQYSFAQIEAFATIAETGSLSQAAIRLAKDRTTLRDLLDYLEDALGYRLFSREGRSLTLTAEGEQLFRQAHLLLRQAQAFESFAQTLPQTAGQALRLVYDPFVPREFLCALADNLARRQIRLSCWSASRREAEQALSDGVAEMAICQANNRTLGSEMEWRALGTVDLRFYAADSLFHDAPRPLTLLNLSLTPQLVMHRRSDDQIARRLQISGHTLYMNEITLLRHALEQGRGWGFLPDHLRPGEWQGVSEIATEVGSQGLNVTMVMLWLPGMNKHRMLSDIVHEAPELWLRR | not soluble
2 | MKSPAPSRPQKMALIPACIFLCFAALSVQAEETPVTPQPPDILLGPLFNDVQNAKLFPDQKTFADAVPNSDPLMILADYRMQQNQSGFDLRHFVNVNFTLPKEGEKYVPPEGQSLREHIDGLWPVLTRSTENTEKWDSLLPLPEPYVVPGGRFREVYYWDSYFTMLGLAESGHWDKVADMVANFAHEIDTYGHIPNGNRSYYLSRSQPPFFALMVELLAQHEGDAALKQYLPQMQKEYAYWMDGVENLQAGQQEKRVVKLQDGTLLNRYWDDRDTPRPESWVEDIATAKSNPNRPATEIYRDLRSAAASGWDFSSRWMDNPQQLNTLRTTSIVPVDLNSLMFKMEKILARASKAAGDNAMANQYETLANARQKGIEKYLWNDQQGWYADYDLKSHKVRNQLTAAALFPLYVNAAAKDRANKMATATKTHLLQPGGLNTTSVKSGQQWDAPNGWAPLQWVATEGLQNYGQKEVAMDISWHFLTNVQHTYDREKKLVEKYDVSTTGTGGGGGEYPLQDGFGWTNGVTLKMLDLICPKEQPCDNVPATRPTVKSATTQPSTKEAQPTP | not soluble
3 | MTNFRPCFLIPCYNHGKTIPAVVESLMSYGYPMIIVDDGSENETKRILEEVTQHNESITLITLAENQGKGGAVIAGIEKAYQQSYSHAIQIDADGQHDLEALPKLIAESQEHPTALISGQPIYDESVPKSRLYGRYATHIWVWIETLSFTIKDSMCGFRSYPIGPTINVLERAVLGRRMDFDTEIMVRMYWNETDIRFINTRVIYPEDGISHFDALWDNVKISWMHTKLFFGMLPRIPSLLKRKPVQEDHWSSHAERGTILGIQFLLWIYSTFGRKVFSLLLKPVMAYYYLRGGSVKDASDDFIQQVNAYARIKGIQLPEKLTTYRHLVSFGETMLDKLAAWRGDFSDKNLTVHGIEHYQTLAQREKGIVLLGSHLGNLELCRALSRRHTHLKINALVFTEHAERFNTVMKTVNPQSEVNVIQVSKIGPDTAILLQQKIDDGEWIVIVGDRTSVTKENRVIWADFLGKPAPFPQGPFMLASILKQPVYLMFGLRDDTQKDPLFDVYLEPFSEQIILPRGKREEALQEVVQNYAQRLEHFTLKAPSQWYNFFNFWQLTGKKDDNLEHHHHHH | soluble
4 | MACKNPKKFFPIRKSPVLRDGAFKGKLVLVTGGGTGIGKAIATTFAHLRATVVIAARRMEKLEQTARDITKITGGTCEPFQMDIKDPGMVSDAFDKIDMKFGKVPEILVNNAAGNFIMATELLSSNAYGTIIDIVLKGTFNVTTELGKRCIQNKTGASITSITAGYARAGAPFIVPSAVSKAGVETMTKSLATEWSKYGLRFNAVSPGPIPTKGAWGRLNSGEMGDIAEKMKFLNPEGRVGSPEEVANLVAFISSDHMSFLNGAIIDLDGGQQHFNHGSHMGDFLHSWDHKNWEDAENLIRGRTGKEKA | not soluble
5 | MSLRPRVLLVEDSTSLAILYKQYVKDEPYDIFHVETGRDAIQFIERSKPQLIILDLKLPDMSGEDVLDWINQNDIPTSVIIATAHGSVDLAVNLIQKGAEDFLEKPINADRLKTSVALHLKRAKLEDLVENIQSTFDRHNYHGFIGSSLPMQAVYKTIDAVAPTSASVFIVGESGTGKEVCAEAVHRQSDRRDKPFIAINCGAIPRDLMESEIFGHVKGAFTGATTDRKGAATLAHGGTLFLDELCEMELEMQKTLLRFLQTGTYTPLGGTKEMKVDVRIICATNRDPLTEVEEGRFREDLYYRVHVVPIDMPPLRERGSDIVTLAKHFLTTYAKEDKKKFSNIDTEAQHVIKHYEWPGNVRQLQNIIRNIVVLNNDEKVTVAHLPAQLTQKKTQARTVTPVHVEGHHHHHH | soluble
6 | MARKNAVKDNLEQIQHQSYSELQELLSEANSMLADSAAFAGDKADSARARIGALLEKANDALGKGGSAVAERSRHAVDATESYIGANPWQTVAITTAVGLLAGFLLGRRS | not soluble
7 | MNETSHEASECPAAVITGGARRIGHSIAVRLHQQGFRVVVHYRHSEGAAQRLVAELNAARAGSAVLCKGDLSLSSSLLDCCEDIIDCSFRAFGRCDVLVNNASAYYPTPLLPGDDTNGAADAKPIDAQVAELFGSNAVAPLFLIRAFARRQGEGGAWRSRNLSVVNLCDAMTDLPLPGFCVYTMAKHALGGLTRAAALELAPRHIRVNAVAPGLSLLPPAMPQETQEEYRRKVPLGQSEASAAQIADAIAFLVSKDAGYITGTTLKVDGGLILARA | soluble
8 | MSLAQTNQAEVGEPAPNFTLQAADGDEHSLADFEGQYVVLEWLNFGCPFVGKHYGSGNMQRLQDTYTDEGVVWLSIVSSAPGKQGYYPPGEMVEQKKKHDGNMTAILMDPEGEVGKTYDATVTPHMYVISPEGELLYRGGIDDKPTTDEADIEGATNYVRMALDAAMNGEEVRPKRAEPYGCTIKYASKEGHHHHHH | soluble
9 | MSLGNREILYKNLFYNAELFTCRFPELSAALGLDSEIGIKQFAERIPESYYLEEAKLKETDKKIFTARINGKYLHSKYNPISEAEKNISLDFFEDKKAKSSCVFCGLGLGYAQELYAKKYPKSSLIIIEPDLFVFFLFLQSRPLDDFFMHENLILLLGLYPKDVLDFFESKSFFDTPIFKIQSLIDVSSSWFSEFEALKKRRNEKTNLNKNTLKKFGKLWLKNFLKNIKQTEGLFGINKIENIFASCPALIIAAGPGLDDTINLVKENEDKFIIIAADTAVRACHRHGLKPDFILLMDAQYWNYLHLSDLDISDSILITESSVYPAVFRLKTRAKFLCTSMFPLAQYIEKLIGEKGKLVTGGSVATACWDFARILGCSEIIFAGLDLAFPDFQTHFKGSRFEEDVNAFSNRFFPSETASHLSLYSASPQLKEGYEGKVLSDKRMQMYAWWFESKIAEFPDIKTYNLLPRGLKIPNMPALSMEEFLLKAKASPLSKKIKIEKMSALFNLSSYKKEGSFSSPNLSSALKELSTDLEKTMKLAREGMDICLNLLDSLKTGKPLEDSIIKKVWKTEGHHHHHH | soluble
10 | MASKIEQPRWASKDSAAGAASTPDEKIVLEFMDALTSNDAAKLIEYFAEDTMYQNMPLPPAYGRDAVEQTLAGLFTVMSIDAVETFHIGSSNGLVYTERVDVLRALPTGKSYNLSILGVFQLTEGKITGWRDYFDLREFEEAVDLPLRG | soluble
11 | MGSDKIHHHHHHMNFETVIGLEVHVELKTKSKIFSSSPTPFGAEANTQTSVIDLGYPGVLPVLNKEAVEFAMKAAMALNCEIATDTKFDRKNYFYPDNPKAYQISQFDKPIGENGWIEIEVGGKTKRIGITRLHLEEDAGKLTHTGDGYSLVDFNRQGTPLVEIVSEPDIRTPEEAYAYLEKLKSIIQYTGVSDCKMEEGSLRCDANISLRPIGQEEFGTKTELKNLNSFAFVQKGLEHEEKRQEQVLLSGGVIQQETRRYDEATKKTILMRVKEGSDDYRYFPEPDLVELYIDDEWKERVKASIPELPDERRKRYIEELGLPAYDAMVLTLTKEMADFFEETVQKGAEAKQASNWLMGEVSAYLNAEQKELADVALTPEGLAGMIKLIEKGTISSKIAKKVFKELIEKGGDAEKIVKEKGLVQISDEGVLLKLVTEALDNNPQSIEDFKNGKDRAIGFLVGQIMKASKGQANPPMVNKILLEEIKKR | not soluble
12 | MAHHHHHHMSITSRFIGGVKHLLKGGSMKYLAAGEPYCPFGEAFGLTILPEYILEDDASNLRKGYVDVYTRASDRIILNDGRFQLPPLPPASFMPLLERLEQDNVVPKSWLNNQTANLYEPGDFIRAHIDNLFVYDDIFAICSLGSNCLLRFVHVQNGEELDVMVPDRSVYIMSGPARYVYFHMVLPVEAQRFSLVFRRSIMESDGGF | not soluble
13 | GMWQFPLFETILIEQGQAKNISYHQQRYEKSLLKFYPKMKLQPFDLAKIIAKHTALFTHREGLIRCRIDYNHHDYVLQCFPYQQKVYRTFKPVFCDHIDYSLKFSDRTLLNNLLKQKEECDEIMIIRQGKVTDCSIGNLIFRQNNQWITPDKPLLEGTQRAKLLEQKKIIAREIFFEDLAQYEEIRLINAMNGL | soluble
14 | MSLEITKIEVHVIGPEDKRYTWSEDIEEVYQSNTLIKIFTDEDIVGEAAIWNATYFEYDKYTAESLRHLLPILIGKDPLNREEILYDIRPRVFPQPPGAQALIDNALWDILGKKCKSPIYKILGGRRDKIKSYASTVMYNTIDEYLKVVDEMKEQGFSAVKFHTYCIPKKDLELAEAARKAFPSMSFMIDAENNYDLESSLIVAKKLEKLEFTWFEAPLPDYDFAGYKKITDSVGIKVIPSGNWVVDLQRFSEAIHNKVWSATRTDMAMMGGITNCKKAIDLSSAGGLDCEIMSWGYTLVSAANLHLMLSSDNCSYYEQPLPYNNFEFGMKDVLRTSQDGYMYAPTKPGLGMEIDWDKMMSKNIYSITCEEGKKISLVHSEGHHHHHH | soluble
15 | MKVLIDTNVILDVLLNRASFVQDAIAVLELTCGNIQAYVSASAITDIYYIAYKELRDKIRVKNLIKTLLQIITVAGISDKEIMSAIDSDWADFEDSLQNAVAESHDCSMIITRNISDFNGSNLQIISPKDFIVQFTHLEHHHHHH | not soluble
16 | MGSSHHHHHHSSGLVPRGSHMKLNRVVVTGYGVTSPIGNTPEEFWNSLATGKIGIGGITKFDHSDFDVHNAAEIQDFPFDKYFVKKDTNRFDNYSLYALYAAQEAVNHANLDVEALNRDRFGVIVASGIGGIKEIEDQVLRLHEKGPKRVKPMTLPKALPNMASGNVAMRFGANGVCKSINTACSSSNDAIGDAFRSIKFGFQDVMLVGGTEASITPFAIAGFQALTALSTTEDPTRASIPFDKDRNGFVMGEGSGMLVLESLEHAEKRGATILAEVVGYGNTCDAYHMTSPHPEGQGAIKAIKLALEEAEISPEQVAYVNAAGTSTPANEKGESGAIVAVLGKEVPVSSTKSFTGHLLGAAGAVEAIVTIEAMRHNFVPMTAGTSEVSDYIEANVVYAQGLEKEIPYAISNTFGFGGHNAVLAFKRWENR | soluble
17 | SPVYGVKAVPVERIRANSYNPNVTAPPEMRLLELSIWEDGYTMPCVCYYIEKEDVYELVDGYHRYKVMMTSPRIYKRENGLLPVTVIRKDLAERMASTIRHNRARGMHK | soluble
18 | QGHMRVEVFPVEGLPLIKEGDDLAELISSRVRFEDGDVLVVCSTVISKAEGRIRRLEEFNPSERAKEIAARIGKPAEFVQAVLEESEEVLLDFPFLLVKAKFGNVCVNAGIDASNVEEGSLLLPPLDPDGSAEKLRRRILELTGKRVGVIITDTNGRCFRRGVVGFAIGISGVKAMKDWIGRKDLYGRELEVTVECVADEIAAFANLLMGEGGDGIPAVVVRGLNVAGEGSMEEIYRSEEEDVIRRCLKRCLGS | soluble
19 | SLVHKKIVVPSATDMATRFTQDSFVFDCLSMYYVIDDPWAENCLAAGVNATNVTFGTEQPWDIVLRDFDSGLEKIERSPYLALATNRQEIDAANKQGKLAVIIGTQGSAMVDLEFHRLRTMHRLGMRYFGLAYTGPTMFADGCGESRNAGLSFAGIELIDACNDLGLILDLSHVGHRSREEAVARSRFPVYTHSNSYALNPNDRNTTDETARAIRAKGGIMGICGLPKTVHPENATLNELLDHADHWVKTIDAAHVGFGLDFVEAYKSDRSTMPAASRLWRTRRPDIFGTVEEFHLQDYPLGIASIKQLPNLTQGLFDRGYAEKEVAGIIGGNWLRHFTEVYG | soluble
20 | MSALPPVYSFPPLYTRQPNSLTRRQQISTWIDIISQYCKTKKIWYMSVDGTVINDNELDSGSTDNDDSKKISKNLFNNEDIQRSVSQVFIDEIWSQMTKEGKCLPIDQSGRRSSNTTTTRYFILWKSLDSWASLILQWFEDSGKLNQVITLYELSEGDETVNWEFHRMPESLLYYCLKPLCDRNRATMLKDENDKVIAIKVV | soluble
